Assay [1] addresses T1, human TfR extracellular domain with N-terminal His tag (human, UniProt P02786 89-760).
T1 construct: Biotinylated in some assays; also called huTfR; HuTfR
Nature of the assay: ELISA, IgG.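 Further: ELISA of IgG-containing supernatants tested in 1:5 serial dilutions for 1 h, bound antibody read out with HRP anti-kappa antibody and TMB substrate.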

Assay [2] has as its target T2, cyno TfR extracellular domain (analogous construct to human TfR ecd) (cynomolgus monkey, UniProt Q5RDH6 87-760 (Pongo abelii entry)).
T2 construct: also called cynoTfR ecd
T2 chain: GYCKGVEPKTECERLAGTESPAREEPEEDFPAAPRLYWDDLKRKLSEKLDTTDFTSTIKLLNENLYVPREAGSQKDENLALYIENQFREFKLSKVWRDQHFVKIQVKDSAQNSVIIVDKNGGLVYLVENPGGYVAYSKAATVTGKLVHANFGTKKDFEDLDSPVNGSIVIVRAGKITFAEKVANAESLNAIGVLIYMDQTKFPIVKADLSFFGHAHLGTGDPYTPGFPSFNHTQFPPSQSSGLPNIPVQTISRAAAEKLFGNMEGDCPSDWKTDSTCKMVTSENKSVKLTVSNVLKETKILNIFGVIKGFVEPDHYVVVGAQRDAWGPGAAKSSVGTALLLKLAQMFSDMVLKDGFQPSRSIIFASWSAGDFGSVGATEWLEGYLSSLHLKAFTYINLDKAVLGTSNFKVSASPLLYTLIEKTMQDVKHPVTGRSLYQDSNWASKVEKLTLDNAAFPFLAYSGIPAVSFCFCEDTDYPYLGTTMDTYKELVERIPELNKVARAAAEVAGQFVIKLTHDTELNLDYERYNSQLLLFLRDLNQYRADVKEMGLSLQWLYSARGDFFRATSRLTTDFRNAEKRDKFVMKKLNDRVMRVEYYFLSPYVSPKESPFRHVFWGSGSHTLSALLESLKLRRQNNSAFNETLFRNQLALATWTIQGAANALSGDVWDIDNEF
Description: ELISA, IgG.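 Further: ELISA of IgG-containing supernatants tested in 1:5 serial dilutions for 1 h, bound antibody read out with HRP anti-kappa antibody and TMB substrate.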

Assay [3] has as its target T3, human BACE1 ECD.
T3 construct: analyte of the Octet assay (200 nM) and enzyme of the first short substrate assay; also called human BACE1 extracellular domain
Description: Octet, pH 7.5.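 Further: antibodies captured on anti-human capture biosensor tips, dissociation followed in PBS with BSA buffer, kinetics fitted with a one-to-one binding model.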

Assay [4] has as its target T4, murine BACE1 ECD.
T4 construct: analyte of the Octet assay (200 nM) and enzyme of the first short substrate assay
Nature of the assay: Octet, pH 7.5.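 Further: antibodies captured on anti-human capture biosensor tips, dissociation followed in PBS with BSA buffer, kinetics fitted with a one-to-one binding model.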

Assay [5] concerns the target T5, human BACE1 (R&D Systems) (human, UniProt P56817).
T5 construct: recombinant, commercial (R&D Systems)
Nature of the assay: SPR (Biacore).

Assay [6] has as its target T3, human BACE1 ECD. Description: cell-based or functional assay.
Assay [7] has as its target T4, murine BACE1 ECD. Nature of the assay: cell-based or functional assay.
Assay [8] concerns the target BACE1 (HTRF long substrate and FRET short substrate assays of Example 9D). Nature of the assay: cell-based or functional assay.
Assay [9] concerns the target T3, human BACE1 ECD. Nature of the assay: Octet, pH 5.0.
Assay [10] addresses T4, murine BACE1 ECD. Nature of the assay: Octet, pH 5.0.
Assay [11] addresses T3, human BACE1 ECD. Nature of the assay: Octet, pH 7.5.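 Further: antibodies captured on anti-human capture biosensor tips, dissociation followed in PBS with BSA buffer, kinetics fitted with a one-to-one binding model.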 The source holds these as a separate data set.
In assay [12] the target is T4, murine BACE1 ECD. Nature of the assay: Octet, pH 7.5.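 Further: antibodies captured on anti-human capture biosensor tips, dissociation followed in PBS with BSA buffer, kinetics fitted with a one-to-one binding model.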 The source holds these as a separate data set.
Assay [13] has as its target T6, BACE1 in primary mouse cortical neurons (mouse, UniProt P56818 46-501). Nature of the assay: cell-based or functional assay.
In assay [14] the target is T6, BACE1 in primary mouse cortical neurons. Description: cell-based or functional assay. The source holds these as a separate data set.

Like-named read-outs stand apart in the source and are kept apart here.

T4 sequence (single chain, as listed by the source limits assumed): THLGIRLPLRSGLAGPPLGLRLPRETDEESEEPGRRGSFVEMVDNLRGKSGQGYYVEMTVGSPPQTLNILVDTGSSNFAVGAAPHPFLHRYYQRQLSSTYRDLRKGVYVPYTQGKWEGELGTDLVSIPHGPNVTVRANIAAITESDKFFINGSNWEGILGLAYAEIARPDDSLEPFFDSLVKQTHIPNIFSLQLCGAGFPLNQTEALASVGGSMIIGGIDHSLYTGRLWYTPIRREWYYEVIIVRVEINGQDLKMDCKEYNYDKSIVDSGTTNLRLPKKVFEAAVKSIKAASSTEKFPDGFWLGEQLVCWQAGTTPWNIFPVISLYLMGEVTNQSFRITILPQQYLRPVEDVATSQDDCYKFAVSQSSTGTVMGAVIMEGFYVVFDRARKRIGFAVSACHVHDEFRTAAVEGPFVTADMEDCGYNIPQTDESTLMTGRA
T3 sequence (single chain, as listed by the source limits assumed): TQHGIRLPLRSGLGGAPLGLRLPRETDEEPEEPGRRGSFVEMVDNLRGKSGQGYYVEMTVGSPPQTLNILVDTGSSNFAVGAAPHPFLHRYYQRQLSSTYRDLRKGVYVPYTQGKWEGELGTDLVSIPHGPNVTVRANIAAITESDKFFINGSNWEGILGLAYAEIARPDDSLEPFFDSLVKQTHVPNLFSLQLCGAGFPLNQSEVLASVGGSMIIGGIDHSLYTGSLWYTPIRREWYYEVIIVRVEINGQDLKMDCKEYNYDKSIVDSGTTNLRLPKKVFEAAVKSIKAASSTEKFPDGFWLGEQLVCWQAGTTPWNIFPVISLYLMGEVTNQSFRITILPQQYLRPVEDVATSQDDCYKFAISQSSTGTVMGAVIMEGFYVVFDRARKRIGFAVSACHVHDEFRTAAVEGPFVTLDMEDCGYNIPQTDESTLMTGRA
T6 sequence (P56818 46-501): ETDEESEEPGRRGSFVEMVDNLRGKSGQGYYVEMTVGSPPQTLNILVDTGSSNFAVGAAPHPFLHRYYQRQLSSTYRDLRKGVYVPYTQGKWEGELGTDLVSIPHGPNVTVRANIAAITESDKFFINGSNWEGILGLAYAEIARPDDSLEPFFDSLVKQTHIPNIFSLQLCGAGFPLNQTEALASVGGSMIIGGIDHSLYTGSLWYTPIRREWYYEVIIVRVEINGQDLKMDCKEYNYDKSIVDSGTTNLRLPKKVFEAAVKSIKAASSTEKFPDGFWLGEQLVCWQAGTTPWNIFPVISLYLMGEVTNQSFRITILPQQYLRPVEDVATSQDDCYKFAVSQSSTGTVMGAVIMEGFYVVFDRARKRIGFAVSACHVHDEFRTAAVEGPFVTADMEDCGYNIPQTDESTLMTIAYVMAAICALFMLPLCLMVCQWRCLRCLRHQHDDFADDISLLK
T5 sequence (P56817 22-457 limits assumed): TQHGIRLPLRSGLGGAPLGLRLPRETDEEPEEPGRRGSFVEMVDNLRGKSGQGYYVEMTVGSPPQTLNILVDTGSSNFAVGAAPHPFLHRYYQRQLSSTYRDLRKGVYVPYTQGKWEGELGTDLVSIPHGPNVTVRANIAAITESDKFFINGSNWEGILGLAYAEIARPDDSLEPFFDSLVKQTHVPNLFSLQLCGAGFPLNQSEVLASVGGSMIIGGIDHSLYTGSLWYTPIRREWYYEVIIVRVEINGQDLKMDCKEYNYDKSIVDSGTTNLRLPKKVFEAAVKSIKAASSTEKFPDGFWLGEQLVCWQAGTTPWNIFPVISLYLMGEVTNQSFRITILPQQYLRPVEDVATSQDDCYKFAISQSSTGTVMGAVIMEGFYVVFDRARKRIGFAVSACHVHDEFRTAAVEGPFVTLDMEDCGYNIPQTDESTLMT
T1 sequence (P02786 89-760 G142S): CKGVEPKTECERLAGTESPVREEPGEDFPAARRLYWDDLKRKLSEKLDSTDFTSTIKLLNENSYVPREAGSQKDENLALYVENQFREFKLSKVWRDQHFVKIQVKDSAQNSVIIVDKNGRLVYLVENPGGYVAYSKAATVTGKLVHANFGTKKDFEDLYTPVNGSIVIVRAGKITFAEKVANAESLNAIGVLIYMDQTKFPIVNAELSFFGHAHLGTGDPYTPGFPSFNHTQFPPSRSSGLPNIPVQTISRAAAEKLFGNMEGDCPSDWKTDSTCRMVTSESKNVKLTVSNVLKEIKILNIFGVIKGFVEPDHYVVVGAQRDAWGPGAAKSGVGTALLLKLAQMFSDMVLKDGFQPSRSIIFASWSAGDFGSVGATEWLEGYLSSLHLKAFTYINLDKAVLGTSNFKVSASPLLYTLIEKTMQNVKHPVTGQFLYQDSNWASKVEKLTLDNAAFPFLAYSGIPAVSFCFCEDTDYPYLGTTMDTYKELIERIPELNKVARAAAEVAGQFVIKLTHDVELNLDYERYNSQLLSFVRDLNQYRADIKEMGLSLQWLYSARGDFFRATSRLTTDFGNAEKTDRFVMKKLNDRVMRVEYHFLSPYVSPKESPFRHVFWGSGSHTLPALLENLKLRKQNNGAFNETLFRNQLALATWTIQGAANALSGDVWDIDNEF

B1: Y100A (antibody, V domains shown)
VH: EVQLVQSGAEVKKPGASVKVSCKGSGYTFTDYAMHWVRQAPGQGLEWMGGISTYFGRTNYNQKFKGRVTMTVDTSISTAYMELSRLRSDDTAVYYCARGLSGNAVMDYWGQGTTVTVSS
VL: DIVMTQSPDSLAVSLGERATINCRASESVDSYGNSFMHWYQQKPGQPPKLLIYRASNLESGVPDRFSGSGSRTDFTLTISSLQAEDVAVYYCQQSNEAPPTFGQGTKLEIK
notes: also called 7A4.v15 Y100A (CDR-H3) IgG; copies: 2 + 2
B1: the 50% effective concentration (EC50) in assay [1] came to 0.0159 µg/mL; in assay [2], 0.024 µg/mL.

B2: Y102A (antibody, V domains shown)
VH: EVQLVQSGAEVKKPGASVKVSCKGSGYTFTDYAMHWVRQAPGQGLEWMGGISTYFGRTNYNQKFKGRVTMTVDTSISTAYMELSRLRSDDTAVYYCARGLSGNYVMDAWGQGTTVTVSS
VL: DIVMTQSPDSLAVSLGERATINCRASESVDSYGNSFMHWYQQKPGQPPKLLIYRASNLESGVPDRFSGSGSRTDFTLTISSLQAEDVAVYYCQQSNEAPPTFGQGTKLEIK
notes: also called 7A4.v15 Y102A (CDR-H3) IgG; copies: 2 + 2
With B2, the EC50 was found to be 0.0126 µg/mL in [1] and 0.0178 µg/mL in assay [2].

B3: 5532 (antibody, V domains shown)
VH: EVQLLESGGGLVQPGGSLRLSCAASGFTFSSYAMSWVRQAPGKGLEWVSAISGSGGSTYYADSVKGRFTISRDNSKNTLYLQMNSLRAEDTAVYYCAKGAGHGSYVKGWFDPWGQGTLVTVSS
VL: EIVLTQSPATLSLSPGERATLSCRASQSVSSYLAWYQQKPGQAPRLLIYDASNRATGIPARFSGSGSGTDFTLTISSLEPEDFAVYYCQQSSNFPFTFGGGTKVEIK
notes: anti-BACE1 IgG
With B3, the Kd in the assay with human BACE1 ECD [3] was 76 nM; with murine BACE1 ECD [4], 48 nM; in assay [5], 130 nM. Besides, the “% inhibition of BACE1 activity, short FRET substrate” value (shortened to “% inhibition of BACE1 activity”) was 56% with human BACE1 ECD [6] and 50% in the assay with murine BACE1 ECD [7]. The “EC50, FRET short substrate” value in [8] was 52.3 nM. Further, the “EC50, HTRF long substrate” value in assay [8] turned out to be 104 nM.

B4: 5583 (antibody, V domains shown)
VH: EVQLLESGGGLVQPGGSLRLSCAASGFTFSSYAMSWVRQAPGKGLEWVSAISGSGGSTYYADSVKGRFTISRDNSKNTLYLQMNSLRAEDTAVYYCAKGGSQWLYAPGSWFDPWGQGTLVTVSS
VL: EIVLTQSPATLSLSPGERATLSCRASQSVSSYLAWYQQKPGQAPRLLIYDASNRATGIPARFSGSGSGTDFTLTISSLEPEDFAVYYCVQRSNFPWTFGGGTKVEIK
notes: anti-BACE1 IgG
With B4, the dissociation constant (Kd) worked out at 78 nM with human BACE1 ECD [3], 51 nM in the assay with murine BACE1 ECD [4] and 81.8 nM in assay [5]. Moreover, the “% inhibition of BACE1 activity” value with human BACE1 ECD [6] stood at 44%; with murine BACE1 ECD [7] it was 34%. In addition, the “EC50, FRET short substrate” value in [8] stood at 9.72 nM. The “EC50, HTRF long substrate” value in assay [8] was found to be 172 nM.

B5: 5592 (antibody, V domains shown)
VH: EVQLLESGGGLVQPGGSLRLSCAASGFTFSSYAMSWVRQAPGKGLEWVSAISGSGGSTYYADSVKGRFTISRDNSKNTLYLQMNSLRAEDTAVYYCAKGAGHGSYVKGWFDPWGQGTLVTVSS
VL: EIVLTQSPATLSLSPGERATLSCRASQSVSSYLAWYQQKPGQAPRLLIYDASNRATGIPARFSGSGSGTDFTLTISSLEPEDFAVYYCQQSVNFPFTFGGGTKVEIK
notes: anti-BACE1 IgG
For the molecule B5, the Kd was 59 nM with human BACE1 ECD [3], 38 nM with murine BACE1 ECD [4] and 105 nM in assay [5]. The “% inhibition of BACE1 activity” value with human BACE1 ECD [6] is 63%; with murine BACE1 ECD [7], 60%. The “EC50, FRET short substrate” value in [8] worked out at 95.9 nM. Further, the “EC50, HTRF long substrate” value in assay [8] came to 189 nM.

B6: 5931 (antibody, V domains shown)
VH: QLQLQESGPGLVKPSETLSLTCTVSGGSISWSSYYWSWIRQPPGKGLEWIGSIYRSGRTYYNPSLKGRVTISVDTSKNQFSLKLSSVTAADTAVYYCARVGHGINYFDLWGRGTLVTVSS
VL: EIVLTQSPATLSLSPGERATLSCRASQSVSSYLAWYQQKPGQAPRLLIYDASKRATGIPARFSGSGSGTDFTLTISSLEPEDFAVYYCQQVYTWPPRTFGGGTKVEIK
notes: anti-BACE1 IgG
B6: the dissociation constant Kd was below 0.22 nM with human BACE1 ECD [9], below 0.28 nM in the assay with murine BACE1 ECD [10], below 0.22 nM with human BACE1 ECD [11] and below 0.23 nM with murine BACE1 ECD [12]. In addition, the “IC50, Abeta x-40 in mouse cortical neurons” value in assay [13] amounted to 0.91 nM. Besides, the “maximal % inhibition of Abeta x-40” value in [13] amounted to 69%.

B7: 5933 (antibody, V domains shown)
VH: QLQLQESGPGLVKPSETLSLTCTVSGGSISRGSYYWGWIRQPPGKGLEWIGMIYYSGSTWYNPSLKSRVTISVDTSKNQFSLKLSSVTAADTAVYYCARVGHGVSYFDLWGRGTLVTVSS
VL: EIVLTQSPATLSLSPGERATLSCRASQSVSSYLAWYQQKPGQAPRLLIYGASKRATGIPARFSGSGSGTDFTLTISSLEPEDFAVYYCQQVYTWPPRTFGGGTKVEIK
notes: anti-BACE1 IgG
Turning to B7, the Kd with human BACE1 ECD [9] was below 0.2 nM; in the assay with murine BACE1 ECD [10] it was below 0.24 nM; in the assay with human BACE1 ECD [11] it was 0.32 nM; with murine BACE1 ECD [12], below 0.24 nM. The “IC50, Abeta x-40 in mouse cortical neurons” value in assay [13] turned out to be 3.6 nM. Besides, the “maximal % inhibition of Abeta x-40” value in assay [13] was found to be 67%.

B8: 5985 (antibody, V domains shown)
VH: QLQLQESGPGLVKPSETLSLTCTVSGGSISSSSYYWGWIRQPPGKGLEWIGNIYYSGSTYYNPSLKSRVTISVDTSKNQFSLKLSSVTAADTAVYYCARLGHGYNYFDLWGRGTLVTVSS
VL: EIVLTQSPATLSLSPGERATLSCRASQSVSSYLAWFQQKPGQAPRLLIYDASNRATGIPARFSGSGSGTDFTLTISSLEPEDFAVYYCQQVYVWPPRTFGGGTKVEIK
notes: anti-BACE1 IgG
Consider B8, for which the dissociation constant (Kd) with human BACE1 ECD [9] worked out at 0.68 nM; with murine BACE1 ECD [10], 0.81 nM; with human BACE1 ECD [11], 0.87 nM; with murine BACE1 ECD [12], 0.65 nM. Besides, the “maximal % inhibition of Abeta x-40” value in assay [13] was 73%.

B9: 5982 (antibody, V domains shown)
VH: QLQLQESGPGLVKPSETLSLTCTVSGGSISSSSYYWGWIRQPPGKGLEWIGNIYYSGSTYYNPSLKSRVTISVDTSKNQFSLKLSSVTAADTAVYYCARLGHGYSYFDLWGRGTLVTVSS
VL: EIVLTQSPATLSLSPGERATLSCRASQSVSSYLAWFQQKPGQAPRLLIYDASNRATGIPARFSGSGSGTDFTLTISSLEPEDFAVYYCQQVYVWPPRTFGGGTKVEIK
notes: anti-BACE1 IgG
Take B9: the Kd with human BACE1 ECD [9] was 2.3 nM; with murine BACE1 ECD [10], 2.3 nM; with human BACE1 ECD [11], 2.9 nM; with murine BACE1 ECD [12] it was 2 nM. The “IC50, Abeta x-40 in mouse cortical neurons” value in assay [13] worked out at 27.3 nM. For the same molecule, the “maximal % inhibition of Abeta x-40” value in assay [13] turned out to be 71%.

B10: 5932 (antibody, V domains shown)
VH: QLQLQESGPGLVKPSETLSLTCTVSGGSISRGSYYWGWIRQPPGKGLEWIGMIYYSGSTWYNPSLKSRVTISVDTSKNQFSLKLSSVTAADTAVYYCARVGHGISYFDLWGRGTLVTVSS
VL: EIVLTQSPATLSLSPGERATLSCRASQSVSSYLAWYQQKPGQAPRLLIYDASKRATGIPARFSGSGSGTDFTLTISSLEPEDFAVYYCQQVYTWPPRTFGGGTKVEIK
notes: anti-BACE1 IgG
Turning to B10, the dissociation constant (Kd) with human BACE1 ECD [9] is below 0.23 nM; in the assay with murine BACE1 ECD [10], below 0.3 nM; with human BACE1 ECD [11] it was 0.31 nM; with murine BACE1 ECD [12] it was below 0.3 nM. Further, the “IC50, Abeta x-40 in mouse cortical neurons” value in assay [13] turned out to be 6.26 nM. Besides, the “maximal % inhibition of Abeta x-40” value in assay [13] stood at 57%.

B11: 5984 (antibody, V domains shown)
VH: QLQLQESGPGLVKPSETLSLTCTVSGGSISSSSYYWGWIRQPPGKGLEWIGNIYYSGSTYYNPSLKGRVTISVDTSKNQFSLKLSSVTAADTAVYYCARLGHGYNYFDLWGRGTLVTVSS
VL: EIVLTQSPATLSLSPGERATLSCRASQSVSSYLAWFQQKPGQAPRLLIYDASNRATGIPARFSGSGSGTDFTLTISSLEPEDFAVYYCQQVYVWPPRTFGGGTKVEIK
notes: anti-BACE1 IgG
Consider B11, for which the Kd is 0.34 nM with human BACE1 ECD [9], 0.37 nM in the assay with murine BACE1 ECD [10], 0.43 nM with human BACE1 ECD [11] and 0.36 nM with murine BACE1 ECD [12]. Further, the “IC50, Abeta x-40 in mouse cortical neurons” value in assay [13] is 22.6 nM. The “maximal % inhibition of Abeta x-40” value in [13] amounted to 70%.

B12: 5539 (antibody, V domains shown)
VH: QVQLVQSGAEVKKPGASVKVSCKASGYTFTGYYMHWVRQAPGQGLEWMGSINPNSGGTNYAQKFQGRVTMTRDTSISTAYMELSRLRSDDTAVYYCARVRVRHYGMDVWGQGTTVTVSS
VL: DIQMTQSPSSLSASVGDRVTITCRASQSISSYLNWYQQKPGKAPKLLIYAASSLQSGVPSRFSGSGSGTDFTLTISSLQPEDFATYYCQQPLSHPRTFGGGTKVEIK
notes: anti-BACE1 IgG
For the molecule B12, the values for the Kd (with human BACE1 ECD [3]; with murine BACE1 ECD [4]; in assay [5]) were 79 nM, 110 nM and 30.5 nM, respectively. Further, the “% inhibition of BACE1 activity” value was determined as 42% with human BACE1 ECD [6] and 23% in the assay with murine BACE1 ECD [7]. Further, the “EC50, HTRF long substrate” value in assay [8] stood at 0.694 nM. Further, in [14], the “IC50, Abeta x-40 in mouse cortical neurons” value turned out to be 17.6 nM. Besides, the “maximal % inhibition of Abeta x-40” value in assay [14] was 45%.
